The test system of one data set is Oc1ccccc1O. The data set is described as follows: initial rates, OD260 product formation, Michaelis-Menten nonlinear fit. The class given is biochemical, Acinetobacter baylyi. As to conditions: 100 mM potassium phosphate pH 7.4, 25 °C, catechol 0-200 μM. An excerpt:
(§1) initial rates, OD260 product formation, Michaelis-Menten nonlinear fit on catechol 1,2-dioxygenase (CatA)

Substrate in data set [1]: Oc1ccccc1O
The description is as above. The class given is biochemical, Acinetobacter baylyi. The settings on record: 100 mM potassium phosphate pH 7.4, 25 °C, catechol 0-200 μM.
Text: as §1
The source holds these as a separate data set.

We go through 4 molecules from PMC4549619, “Engineering catechol 1, 2-dioxygenase by design for improving the performance of the cis, cis-muconic acid synthetic pathway in Escherichia coli” (Scientific Reports, 2015).

In general, Km refers to the substrate concentration at which the rate is half of its maximum. As a reminder, the kcat is the number of substrate molecules converted per active site and unit of time at saturation.

In the case of “catechol 1,2-dioxygenase (CatA) (Acinetobacter baylyi ADP1; P76A)”, in the data set on Oc1ccccc1O, the Michaelis constant (Km) was found to be 65.91 ± 7.753 µM and the kcat came out at 46.56 ± 0.201 s⁻¹.
For “catechol 1,2-dioxygenase (CatA) (Acinetobacter baylyi ADP1; L73F)”, in that order: 151.09 ± 10.299 µM and 5.65 ± 0.163 s⁻¹.
Taken in the same sequence, the figures for “catechol 1,2-dioxygenase (CatA) (Acinetobacter baylyi ADP1; L73F/P76A)” were 45.96 ± 7.691 µM and 39.5 ± 0.221 s⁻¹.

B1: catechol 1,2-dioxygenase (CatA) (Acinetobacter baylyi ADP1) (protein)
chain: MEVKIFNTQDVQDFLRVASGLEQEGGNPRVKQIIHRVLSDLYKAIEDLNITSDEYWAGVAYLNQLGANQEAGLLSPGLGFDHYLDMRMDAEDAALGIENATPRTIEGPLYVAGAPESVGYARMDDGSDPNGHTLILHGTIFDADGKPLPNAKVEIWHANTKGFYSHFDPTGEQQAFNMRRSIITDENGQYRVRTILPAGYGCPPEGPTQQLLNQLGRHGNRPAHIHYFVSADGHRKLTTQINVAGDPYTYDDFAYATREGLVVDAVEHTDPEAIKANDVEGPFAEMVFDLKLTRLVDGVDNQVVDRPRLAV
For the molecule B1, in data set [1], the Km amounted to 7.88 ± 1.239 µM and the kcat was 7.86 ± 0.248 s⁻¹.
